In assay [1] the target is T1, MHGW8 (B2m-3(G4S)-HLA-G1-G4S-Avi) (human, biotinylated (Avi tag) in the blocking assay).
T1 construct: Single chain β2m-HLA-G1; also called soluble HLA-G1 extracellular domain; recombinant biotinylated HLA-G1
Nature of the assay: flow cytometry competition: blocks MHGW8-dextramer binding to ILT4 on HEK293T cells (competitor ILT4). On the technique in general: In flow cytometry, cells or beads pass a laser one at a time.

In assay [2] the target is T1, MHGW8 (B2m-3(G4S)-HLA-G1-G4S-Avi). The experiment in a line: SPR, mAb captured by goat anti-human Fc, MHGW8 flowed.
Assay [3] deals with T2, HLA-G on cells (K562-HLA-G and HLA-G expressing tumor cells) (human).
T2 construct: whole, on cells; also called HLA-G1
Nature of the assay: flow cytometry, IgG1 mAb on cells expressing HLA-G.

Assay [4] has as its target T1, MHGW8 (B2m-3(G4S)-HLA-G1-G4S-Avi). The experiment in a line: flow cytometry competition: blocks MHGW8-dextramer binding to ILT2 on HEK293T cells (competitor ILT2).
In assay [5] the target is T3, CD3W147 (homodimeric CD3εγ-Fc) (human, biotinylated).
T3 construct: also called recombinant CD3
T3 chain: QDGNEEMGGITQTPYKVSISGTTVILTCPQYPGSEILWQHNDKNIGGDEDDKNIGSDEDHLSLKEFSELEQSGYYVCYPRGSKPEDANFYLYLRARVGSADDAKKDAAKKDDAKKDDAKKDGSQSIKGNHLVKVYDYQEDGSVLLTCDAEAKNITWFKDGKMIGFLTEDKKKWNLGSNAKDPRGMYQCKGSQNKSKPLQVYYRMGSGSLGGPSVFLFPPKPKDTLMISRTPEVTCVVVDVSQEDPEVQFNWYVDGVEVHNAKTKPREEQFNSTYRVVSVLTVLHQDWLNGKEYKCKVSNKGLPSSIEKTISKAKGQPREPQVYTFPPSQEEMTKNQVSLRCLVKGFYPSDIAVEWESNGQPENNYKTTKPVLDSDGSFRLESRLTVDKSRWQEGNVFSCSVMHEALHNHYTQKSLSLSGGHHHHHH
The experiment in a line: ELISA, E. coli supernatant (heated to 60° C., cooled) on biotinylated CD3W147. In general terms: An ELISA detects its analyte on a solid surface through an enzyme-linked reagent.

Assay [6] has as its target T4, Human CD3 epsilon (CD3ε) of the T cell receptor complex on cells (human, UniProt P07766 23-207).
T4 construct: On Jurkat cells and primary human (pan) T cells; also called T-cell surface glycoprotein CD3 epsilon chain; T3E
The experiment in a line: flow cytometry, E. coli supernatant on human T cells.

As usually defined, the EC50 is the concentration giving half of the maximal effect. Low values mean higher potency in that assay, high ones lower potency in that assay. By Kd is commonly meant the free concentration of one partner at which half of the binding sites on the other are occupied at equilibrium, for simple one-to-one binding. Read a high Kd as a looser complex. As usually defined, the koff is the first-order rate constant of dissociation. Low readings indicate a long-lived complex, high ones a short-lived complex. One may read the kon as the second-order rate constant of association. Low values mean slow association, high ones fast association.

T4 sequence (P07766 23-207 limits assumed, one chain of several): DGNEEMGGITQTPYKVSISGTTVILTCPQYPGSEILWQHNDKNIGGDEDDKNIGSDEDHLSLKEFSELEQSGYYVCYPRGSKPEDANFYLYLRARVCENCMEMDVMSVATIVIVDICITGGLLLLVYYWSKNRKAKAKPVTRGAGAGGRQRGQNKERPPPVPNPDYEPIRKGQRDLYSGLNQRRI

B1: MHGB687 (antibody, human IgG1, kappa, V domains shown)
VH: QLQLQESGPGLVKPSETLSLMCTVSGGSITSSSYYWGWIRQPPGKGLEWIGNIYYSGTTYYNPSLKSRVTISVDTSKNQFSLKLSSVTAADTAVYYCAAGARDFDSWGQGSLVTVSS
VL: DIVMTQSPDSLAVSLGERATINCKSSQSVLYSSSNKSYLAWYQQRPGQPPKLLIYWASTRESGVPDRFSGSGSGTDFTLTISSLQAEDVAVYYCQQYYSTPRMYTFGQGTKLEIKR
notes: IgG1
B1 gave an EC50 in assay [1] of 1860 nM. In addition, in assay [2], binding was put at a Kd of 0.809 nM, the off-rate constant (koff) is 0.000153 s⁻¹ and the on-rate (kon) worked out at 189000 M⁻¹ s⁻¹. In assay [3], the “GeoMean fluorescence (maximum value)” value came out at 528000.

B2: MHGB694 (antibody, human IgG1, kappa, V domains shown)
VH: EVQLLESGGGLVQPGGSLRLSCAASGFTFSSYAMHWVRQAPGKGLDWVSGISGSGFSTYYVDSVKGRFTISRDNSKHTLYLQMNSLRAEDTAVYYCAKDNLVAGTVFDYWGQGTLVTVSS
VL: not shown
notes: IgG1
B2 displayed an EC50 in assay [1] of 200 nM. In assay [2], binding was put at a Kd of 1.15 nM, the koff is 0.0024 s⁻¹ and the on-rate (kon) turned out to be 2.08e+06 M⁻¹ s⁻¹. Moreover, in assay [3], the “GeoMean fluorescence (maximum value)” value is 473000. In addition, in assay [4], the EC50 turned out to be 644 nM.

B3: MHGB668 (antibody, human IgG1, kappa, V domains shown)
VH: QVQLQQSGPGLVKPSQTLSLTCAISGDSVSNNSAAWNWIRQSPSRGLEWLGRTYYRSKWYNDYAVSVKSRITINPDTSKNQFSLQLNSVTPEDTAVYYCARYGSGTLLFDYWGQGTLVTVSS
VL: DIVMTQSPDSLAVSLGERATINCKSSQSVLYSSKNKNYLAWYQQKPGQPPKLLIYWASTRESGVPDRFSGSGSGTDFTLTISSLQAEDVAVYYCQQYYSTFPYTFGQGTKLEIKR
notes: IgG1
For B3, the “GeoMean fluorescence (maximum value)” value in assay [3] amounted to 591000.

B4: MHGB688 (antibody, human IgG1, kappa, V domains shown)
VH: EVQLLESGPGLVKPSQTLSLTCVISGDSVSSNRAAWNWIRQSPSRGLEWLGRTYYRSKWYNDYAVSVKSRITINSDTSKNQISLQLNSVTPEDTAVYYCARVRPGIPFDYWGQGTPVTVSS
VL: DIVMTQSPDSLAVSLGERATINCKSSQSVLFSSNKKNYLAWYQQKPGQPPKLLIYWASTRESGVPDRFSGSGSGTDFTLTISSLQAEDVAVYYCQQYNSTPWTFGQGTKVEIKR
notes: IgG1
In assay [1], B4 showed an EC50 of 1420 nM. Further, in assay [2], the Kd came out at 0.4 nM, the koff turned out to be 0.000263 s⁻¹ and the kon was found to be 658000 M⁻¹ s⁻¹. Moreover, the “GeoMean fluorescence (maximum value)” value in assay [3] was determined as 482000. This molecule had an EC50 in assay [4] of 1720 nM.

B5: MHGB738 (antibody, human IgG1, kappa, V domains shown)
VH: QVQLQQSGPGLVKPSQTLSLTCAISGDSVSSNRAAWNWIRQSPSRGLEWLGRTYYRSKWYNDYAVSVKSRITINPDTSKNQISLQLNSVTPEDTAVYYCARVRPGIPFDYWGQGTPVTVSS
VL: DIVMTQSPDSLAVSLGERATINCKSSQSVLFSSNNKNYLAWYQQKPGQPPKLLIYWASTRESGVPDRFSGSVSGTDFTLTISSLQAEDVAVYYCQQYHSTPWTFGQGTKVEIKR
notes: IgG1; also called GL optimized B688
Take B5: the EC50 in assay [1] and in assay [4] was 1.6 nM in each case. Also, the affinity in assay [2], expressed as Kd, was 0.139 nM.

B6: CD3W245-HL-E.c. (scFv)
scFv: EVQLVESGGGLVKPGGSLRLSCAASGFTFSRYNMNWVRQAPGKGLEWVSSISTSSNYIYYADSVKGRFTFSRDNAKNSLDLQMSGLRAEDTAIYYCTRGWGPFDYWGQGTLVTVSSGTEGKSSGSGSESKSTDIQMTQSPSSLSASVGDRVTITCRARQSIGTAIHWYQQKPGKAPKLLIKYASESISGVPSRFSGSGSGTDFTLTISSLQPEDFATYYCQQSGSWPYTFGQGTKLEIKGPGGQHHHHHHGAYPYDVPDYAS
notes: E. coli supernatant
Regarding B6, the binding result in assay [5] was “binds”. Also, the “MFI (n = 2)” value in assay [6] worked out at 178000.

B7: CD3W243-HL-E.c. (scFv)
scFv: EVQLVESGGGLVKPGGSLRLSCAASGFTFSRYNMNWVRQAPGKGLEWVSSISTSSNYIYYADSVKGRFTFSRDNAKNSLDLQMSGLRAEDTAIYYCTRGWGPFDYWGQGTLVTVSSGTEGKSSGSGSESKSTDIQMTQSPSSLSASVGDRVTITCRARQSIGTAIHWYQQKPGKAPKLLIKYASESISGVPSRFSGSGSGTDFTLTISSVQPEDFATYYCQQSNSWPYTFGQGTKLEIKGPGGQHHHHHHGAYPYDVPDYAS
notes: E. coli supernatant
As for B7, the binding result in assay [5] is listed as “binds”. Besides, in assay [6], the “MFI (n = 2)” value stood at 111000.

B8: CD3W238-HL-E.c. (scFv)
scFv: EVQLVESGGGLVKPGGSLRLSCAASGFTFSRYNMNWVRQAPGKGLEWVSSISTSSNYIYYADSVKGRFTFSRDNAKNSLDLQMSGLRAEDTAIYYCTRGWGPFDYWGQGTLVTVSSGTEGKSSGSGSESKSTDIQMTQSPSSLSASVGDRVTITCRARQSIGTAIHWYQQKPGKAPKLLIYYASESISGVPSRFSGSGSGTDFTLTISSLQPEDFATYYCQQSNSWPYTFGQGTKLEIKGPGGQHHHHHHGAYPYDVPDYAS
notes: E. coli supernatant
On to B8, for which the binding result in assay [5] is reported as “binds”. In addition, in assay [6], the “MFI (n = 2)” value was determined as 137000.

B9: CD3W247-HL-E.c. (scFv)
scFv: EVQLVESGGGLVKPGGSLRLSCAASGFTFSRYNMNWVRQAPGKGLEWVSSISTSSNYIYYADSVKGRFTFSRDNAKNSLDLQMSGLRAEDTAIYYCTRGWGPFDYWGQGTLVTVSSGTEGKSSGSGSESKSTDIQMTQSPSSLSASVGDRVTITCRARQSIGTAIHWYQQKPGKAPKLLIYYASESISGVPSRFSGSGSGTDFTLTISSLQPEDFATYYCQQSGSWPYTFGQGTKLEIKGPGGQHHHHHHGAYPYDVPDYAS
notes: E. coli supernatant
For the molecule B9, the binding result in assay [5] is given as “binds”. For the same molecule, in assay [6], the “MFI (n = 2)” value came to 111000.

B10: CD3W246-HL-E.c. (scFv)
scFv: EVQLVESGGGLVKPGGSLRLSCAASGFTFSRYNMNWVRQAPGKGLEWVSSISTSSNYIYYADSVKGRFTFSRDNAKNSLDLQMSGLRAEDTAIYYCTRGWGPFDYWGQGTLVTVSSGTEGKSSGSGSESKSTDIQMTQSPSSLSASVGDRVTITCRARQSIGTAIHWYQQKPGKAPKLLIKYASESISGVPSRFSGSGSGTDFTLTISSVQPEDFATYYCQQSGSWPYTFGQGTKLEIKGPGGQHHHHHHGAYPYDVPDYAS
notes: E. coli supernatant
With B10, the binding result in assay [5] is recorded as “binds”. Further, in assay [6], the “MFI (n = 2)” value was 154000.

B11: CD3W244-HL-E.c. (scFv)
scFv: EVQLVESGGGLVKPGGSLRLSCAASGFTFSRYNMNWVRQAPGKGLEWVSSISTSSNYIYYADSVKGRFTFSRDNAKNSLDLQMSGLRAEDTAIYYCTRGWGPFDYWGQGTLVTVSSGTEGKSSGSGSESKSTDIQMTQSPSSLSASVGDRVTITCRARQSIGTAIHWYQQKPGKAPKLLIYYASESISGVPSRFSGSGSGTDFTLTISSVQPEDFATYYCQQSGSWPYTFGQGTKLEIKGPGGQHHHHHHGAYPYDVPDYAS
notes: E. coli supernatant
In the case of B11, the binding result in assay [5] is “binds”. In assay [6], the “MFI (n = 2)” value is 166000.

B12: CD3W242-HL-E.c. (scFv)
scFv: EVQLVESGGGLVKPGGSLRLSCAASGFTFSRYNMNWVRQAPGKGLEWVSSISTSSNYIYYADSVKGRFTFSRDNAKNSLDLQMSGLRAEDTAIYYCTRGWGPFDYWGQGTLVTVSSGTEGKSSGSGSESKSTDIQMTQSPSSLSASVGDRVTITCRARQSIGTAIHWYQQKPGKAPKLLIKYASESISGVPSRFSGSGSGTDFTLTISSLQPEDFATYYCQQSNSWPYTFGQGTKLEIKGPGGQHHHHHHGAYPYDVPDYAS
notes: E. coli supernatant
In the case of B12, in assay [5], the binding result is given as “binds”. Moreover, the “MFI (n = 2)” value in assay [6] worked out at 126000.

B13: MHGB669 (antibody, human IgG1, kappa, V domains shown)
VH: QVQLQQSGPGLVRPSQTLSVTCAISGDSVSSNSASWNWIRQSPSRGLEWLGRTYYRSEWFNDYAVSVKSRVTINPDTSKNQLSLQLNSVIPEDTAVYYCAREARIGVAGKGFDYWGQGTLVTVSS
VL: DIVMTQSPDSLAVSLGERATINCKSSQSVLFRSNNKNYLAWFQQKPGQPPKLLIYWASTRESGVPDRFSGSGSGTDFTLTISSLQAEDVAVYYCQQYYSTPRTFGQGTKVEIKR
notes: IgG1
Consider B13, for which the concentration for a half-maximal effect (EC50) in assay [1] stood at 1590 nM. Besides, in assay [2], the Kd was determined as 1.44 nM, the off-rate constant (koff) amounted to 0.000453 s⁻¹ and the kon worked out at 315000 M⁻¹ s⁻¹. In addition, the “GeoMean fluorescence (maximum value)” value in assay [3] came out at 616000. Moreover, the concentration giving a half-maximal response (EC50) in assay [4] was found to be 1700 nM.

B14: MHGB672 (antibody, human IgG1, kappa, V domains shown)
VH: QVQLQQSGPGLVKPSQTLSLTCAISGDSVSSNRAAWNWIRQTPSRGLEWLGRTYYRSEWYNDYAVSVKSRITINPDTSKNQFSLQLNSVTPEDTAVYYCARVRAAVPFDYWGQGTLVTVSS
VL: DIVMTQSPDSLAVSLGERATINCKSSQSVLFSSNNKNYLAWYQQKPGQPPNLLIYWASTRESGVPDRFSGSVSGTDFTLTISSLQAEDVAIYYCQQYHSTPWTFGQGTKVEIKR
notes: IgG1
In the case of B14, in assay [1], the 50% effective concentration (EC50) came out at 1610 nM. In assay [2], this molecule yielded a Kd of 0.55 nM, a koff of 0.00179 s⁻¹ and an on-rate (kon) of 3.25e+06 M⁻¹ s⁻¹. The “GeoMean fluorescence (maximum value)” value in assay [3] was 522000. The molecule also had an EC50 in assay [4] of 2120 nM.

B15: CD3W234-HL-E.c. (scFv)
scFv: EVQLVESGGGLVKPGGSLRLSCAASGFTFSRYNMNWVRQAPGKGLEWVSSISTSSNYIYYADSVKGRFTFSRDNAKNSLDLQMSGLRAEDTAIYYCTRGWGPFDYWGQGTLVTVSSGTEGKSSGSGSESKSTDILLTQSPGILSVSPGERVSFSCRARQSIGTAIHWYQQRTNGSPRLLIKYASESISGIPSRFSGSGSGTDFTLTINSVESEDIADYYCQQSNSWPYTFGGGTKLEIKGPGGQHHHHHHGAYPYDVPDYAS
notes: E. coli supernatant; also called CD3B815-HL-scFV
Consider B15, for which the binding result in assay [5] was “binds”. Moreover, in assay [6], the “MFI (n = 2)” value amounted to 66800.

B16: CD3W248-HL-E.c. (scFv)
scFv: EVQLVESGGGLVKPGGSLRLSCAASGFTFSRYNMNWVRQAPGKGLEWVSSISTSSNYIYYADSVKGRFTFSRDNAKNSLDLQMSGLRAEDTAIYYCTRGWGPFDYWGQGTLVTVSSGTEGKSSGSGSESKSTDILLTQSPGILSVSPGERVSFSCRARQSIGTAIHWYQQRTNGSPRLLIKYASESISGIPSRFSGSGSGTDFTLTINSVESEDIADYYCQQSGSWPYTFGGGTKLEIKGPGGQHHHHHHGAYPYDVPDYAS
notes: E. coli supernatant
B16: the binding result in assay [5] was “binds”. Also, the “MFI (n = 2)” value in assay [6] was 60400.

The values above are taken from patent publication US20220411504A1 (Janssen / Centocor, published 2022).
